B1: PTPN9 (parent)
chain: TQHLPRECLPENLGGYVKIDLATW
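Also: lentivirally expressed fusions sorted by FACS into six bins by GFP to DsRed ratio, PSI derived from sequencing read proportions per bin multiplied by bin number.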

Variants of B1 are the subject of this data set. The data set can be described thus: protein stability index of a GFP-peptide fusion (GPS, HEK-293T) (PSI 1-6); higher = more stable. As to conditions: c terminus: a fixed tail appended.
For TQHLPRECLPENLGGYVLIDLATW [K18L], the protein stability index is 2.52.
To TQHLPRECLPENLGGYVWIDLATW [K18W] belongs 2.43.
For the variant TQHLPRECLPENLGGYVEIDLATW [K18E], the protein stability index was determined as 1.93.
With TQHLPRECLPENLGGYVRIDLATW [K18R], the protein stability index amounted to 1.4.
The same measure for TQHLPRECLPENLGGYVSIDLATW [K18S]: 1.97.
Turning to TQHLPRECLPENLGGYVIIDLATW [K18I], the protein stability index is 2.12.
The same measure for TQHLPRECLPENLGGYVGIDLATW [K18G]: 1.93.
To TQHLPRECLPENLGGYVNIDLATW [K18N] belongs 2.18.
With TQHLPRECLPENLGGYVQIDLATW [K18Q], the protein stability index was found to be 1.97.
The same measure for TQHLPRECLPENLGGYVDIDLATW [K18D]: 3.51; for TQHLPRECLPENLGGYVHIDLATW [K18H]: 1.79.
Regarding TQHLPRECLPENLGGYVVIDLATW [K18V], the protein stability index was 3.3.
On to TQHLPRECLPENLGGYVFIDLATW [K18F], for which the protein stability index came out at 3.63.
As for TQHLPRECLPENLGGYVPIDLATW [K18P], the protein stability index came out at 2.19.
To TQHLPRECLPENLGGYVMIDLATW [K18M] belongs 1.73.
The same measure for TQHLPRECLPENLGGYVTIDLATW [K18T]: 1.91; for TQHLPRECLPENLGGYVCIDLATW [K18C]: 1.49.
The same measure for TQHLPRECLPENLGGYVAIDLATW [K18A]: 2; for TQHLPRECLPENLGGYVYIDLATW [K18Y]: 1.91; for TQHLPRECLPENLGGYVKIDLATE [W24E]: 4.07.
Consider TQHLPRECLPENLGGYVKIDLATC [W24C], for which the protein stability index is 2.28.
To TQHLPRECLPENLGGYVKIDLATP [W24P] belongs 2.86; to TQHLPRECLPENLGGYVKIDLATF [W24F], 1.8; to TQHLPRECLPENLGGYVKIDLATK [W24K], 3.59.
To TQHLPRECLPENLGGYVKIDLATG [W24G] belongs 3.38.
The same measure for TQHLPRECLPENLGGYVKIDLATA [W24A]: 2.84.
In the case of TQHLPRECLPENLGGYVKIDLATM [W24M], the protein stability index was 2.05.
To TQHLPRECLPENLGGYVKIDLATH [W24H] belongs 2.66.
Consider TQHLPRECLPENLGGYVKIDLATI [W24I], for which the protein stability index was 1.94.
TQHLPRECLPENLGGYVKIDLATL [W24L]: the protein stability index was found to be 2.12.
The same measure for TQHLPRECLPENLGGYVKIDLATD [W24D]: 3.88; for TQHLPRECLPENLGGYVKIDLATN [W24N]: 3.51; for TQHLPRECLPENLGGYVKIDLAQW [T23Q]: 2.58.
To TQHLPRECLPENLGGYVKIDLANW [T23N] belongs 2.06; to TQHLPRECLPENLGGYVKIDLAGW [T23G], 1.9.
For the variant TQHLPRECLPENLGGYVKIDLAKW [T23K], the protein stability index amounted to 2.38.
With TQHLPRECLPENLGGYVKIDLAPW [T23P], the protein stability index came to 1.99.
Take TQHLPRECLPENLGGYVKIDLAYW [T23Y]: the protein stability index is 1.71.
Take TQHLPRECLPENLGGYVKIDLARW [T23R]: the protein stability index was found to be 1.89.
The same measure for TQHLPRECLPENLGGYVKIDLACW [T23C]: 1.38; for TQHLPRECLPENLGGYVKIDLAMW [T23M]: 1.83; for TQHLPRECLPENLGGYVKIDLAEW [T23E]: 2.73.
Consider TQHLPRECLPENLGGYVKIDLASW [T23S], for which the protein stability index worked out at 2.02.
Regarding TQHLPRECLPENLGGYVKIDLAWW [T23W], the protein stability index was 2.94.
To TQHLPRECLPENLGGYVKIDLAIW [T23I] belongs 2.02; to TQHLPRECLPENLGGYVKIDLAVW [T23V], 3.6.
For TQHLPRECLPENLGGYVKIDLALW [T23L], the protein stability index was 1.76.
Take TQHLPRECLPENLGGYVKIDLAFW [T23F]: the protein stability index came to 2.17.
The same measure for TQHLPRECLPENLGGYVKIDLAHW [T23H]: 2.09; for TQHLPRECLPENLGGYVKIDLAAW [T23A]: 1.83; for TQHLPRECLPENLGGYVKIDLADW [T23D]: 2.37.
On to TQHLPRECLPENLGGYVKVDLATW [I19V], for which the protein stability index amounted to 2.12.
To TQHLPRECLPENLGGYVKHDLATW [I19H] belongs 2.5; to TQHLPRECLPENLGGYVKYDLATW [I19Y], 2.46; to TQHLPRECLPENLGGYVKNDLATW [I19N], 2.67.
Consider TQHLPRECLPENLGGYVKMDLATW [I19M], for which the protein stability index is 2.79.
To TQHLPRECLPENLGGYVKGDLATW [I19G] belongs 3.3.
As to TQHLPRECLPENLGGYVKCDLATW [I19C], the protein stability index stood at 2.3.
Regarding TQHLPRECLPENLGGYVKLDLATW [I19L], the protein stability index is 2.06.
Regarding TQHLPRECLPENLGGYVKDDLATW [I19D], the protein stability index turned out to be 3.07.
The same measure for TQHLPRECLPENLGGYVKTDLATW [I19T]: 2.94.
To TQHLPRECLPENLGGYVKPDLATW [I19P] belongs 3.11; to TQHLPRECLPENLGGYVKEDLATW [I19E], 3.58.
The same measure for TQHLPRECLPENLGGYVKWDLATW [I19W]: 2.46.
Take TQHLPRECLPENLGGYVKQDLATW [I19Q]: the protein stability index was 3.04.
As for TQHLPRECLPENLGGYVKADLATW [I19A], the protein stability index is 2.86.
The same measure for TQHLPRECLPENLGGYVKKDLATW [I19K]: 3.08; for TQHLPRECLPENLGGYVKRDLATW [I19R]: 2.96.
Consider TQHLPRECLPENLGGYVKFDLATW [I19F], for which the protein stability index worked out at 1.79.
As to TQHLPRECLPENLGGYVKSDLATW [I19S], the protein stability index stood at 2.76.
TQHLPRECLPENLGGYTKIDLATW [V17T]: the protein stability index turned out to be 2.36.
The same measure for TQHLPRECLPENLGGYLKIDLATW [V17L]: 1.48.
The same measure for TQHLPRECLPENLGGYRKIDLATW [V17R]: 2; for TQHLPRECLPENLGGYCKIDLATW [V17C]: 1.89; for TQHLPRECLPENLGGYNKIDLATW [V17N]: 2.36.
For the variant TQHLPRECLPENLGGYQKIDLATW [V17Q], the protein stability index turned out to be 2.5.
With TQHLPRECLPENLGGYAKIDLATW [V17A], the protein stability index is 2.57.
For the variant TQHLPRECLPENLGGYIKIDLATW [V17I], the protein stability index turned out to be 2.24.
Turning to TQHLPRECLPENLGGYFKIDLATW [V17F], the protein stability index came to 1.77.
As to TQHLPRECLPENLGGYWKIDLATW [V17W], the protein stability index amounted to 1.89.
TQHLPRECLPENLGGYHKIDLATW [V17H]: the protein stability index was determined as 2.29.
With TQHLPRECLPENLGGYGKIDLATW [V17G], the protein stability index stood at 2.57.
As for TQHLPRECLPENLGGYPKIDLATW [V17P], the protein stability index is 2.2.
Regarding TQHLPRECLPENLGGYSKIDLATW [V17S], the protein stability index stood at 2.57.
To TQHLPRECLPENLGGYYKIDLATW [V17Y] belongs 1.95.
For the variant TQHLPRECLPENLGGYDKIDLATW [V17D], the protein stability index worked out at 3.24.
Regarding TQHLPRECLPENLGGYEKIDLATW [V17E], the protein stability index came out at 2.85.
Take TQHLPRECLPENLGGYMKIDLATW [V17M]: the protein stability index stood at 2.01.
In the case of TQHLPRECLPENLGGYKKIDLATW [V17K], the protein stability index stood at 3.12.
To TQHLPRECLPENLYGYVKIDLATW [G14Y] belongs 2.45.
As for TQHLPRECLPENLWGYVKIDLATW [G14W], the protein stability index worked out at 2.02.
To TQHLPRECLPENLVGYVKIDLATW [G14V] belongs 2.35; to TQHLPRECLPENLTGYVKIDLATW [G14T], 1.46; to TQHLPRECLPENLGCYVKIDLATW [G15C], 2.36.

Source of the values: the supplement of paper PMC10567573.
